For test [1], the target named is T1, PHCP (Hydrogenophilus thermoluteolus cytochrome c') (Hydrogenophilus thermoluteolus, UniProt F7J213).
T1 construct: gene cytc; mature protein, N-terminal DALKP; authentic protein from H. thermoluteolus cells for crystal
T1 sequence (F7J213 20-154): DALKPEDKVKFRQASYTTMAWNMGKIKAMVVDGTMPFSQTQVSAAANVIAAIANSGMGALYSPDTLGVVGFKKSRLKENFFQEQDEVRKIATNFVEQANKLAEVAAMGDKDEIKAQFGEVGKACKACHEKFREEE
As to the kind of experiment: visible absorption spectroscopy. It counts as binding. The following applies: reduced (dithionite) protein 6 uM; 0.5% (v/v) ligand; 10 mM potassium phosphate pH 7.0; 25 C; isomer of butyl group not stated.

In test [2] the target is PHCP A20G variant (Hydrogenophilus thermoluteolus). As to the kind of experiment: AUC; sedimentation velocity of the single variants, data not shown; the same analysis as for the wild-type.
Test [3] addresses PHCP F11T variant (Hydrogenophilus thermoluteolus). The description is as above.
Test [4] has as its target PHCP F11T/T18F/F71D triple variant (Hydrogenophilus thermoluteolus). Briefly: AUC; sedimentation velocity, 5 μM protein, 10 mM Tris-HCl (pH 7.5) with 100 mM NaCl, 20°C, 42,000 rpm, c(s) model in SEDFIT; n = 1.
The target of test [5] is PHCP F71D variant (Hydrogenophilus thermoluteolus). Briefly: AUC; sedimentation velocity of the single variants, data not shown; the same analysis as for the wild-type.
Test [6] addresses PHCP L76V variant (Hydrogenophilus thermoluteolus). The description is as above.
Test [7] addresses PHCP T17E variant (Hydrogenophilus thermoluteolus). Described as above.
The target in test [8] is PHCP T17E/A20G/L76V triple variant (Hydrogenophilus thermoluteolus). Briefly: AUC; sedimentation velocity, 5 μM protein, 10 mM Tris-HCl (pH 7.5) with 100 mM NaCl, 20°C, 42,000 rpm, c(s) model in SEDFIT; n = 1.
For test [9], the target named is PHCP T18F variant (Hydrogenophilus thermoluteolus). Briefly: AUC; sedimentation velocity of the single variants, data not shown; the same analysis as for the wild-type.
Test [10] addresses recombinant PHCP wild-type (Hydrogenophilus thermoluteolus). As to the kind of experiment: AUC; sedimentation velocity, 5 μM protein, 10 mM Tris-HCl (pH 7.5) with 100 mM NaCl, 20°C, 42,000 rpm, c(s) model in SEDFIT; n = 1.

Take `[C-]#[N+]CCCC` [butyl-isocyanide]: the visible absorption spectroscopy result in test [1] was “PHCP is able to bind CO, NO, and large ligands such as butyl‐isocyanide and imidazole”.

In general, stoichiometry N refers to the number of molecules, sites or subunits per partner or assembly. Take PHCP A20G variant (natural protein): the stoichiometry N in [2] worked out at 2.

In test [3], PHCP F11T variant (natural protein) came in with a stoichiometry N of 2.

As to “PHCP F11T/T18F/F71D triple variant (natural protein)”, in test [4], the population of the dimer species worked out at 97.7% and the stoichiometry N is 2.

As to PHCP F71D variant (natural protein), the stoichiometry N in test [5] came out at 2.

PHCP L76V variant (natural protein): the stoichiometry N in test [6] came to 2.

PHCP T17E variant (natural protein) gave a stoichiometry N in test [7] of 2.

Regarding “PHCP T17E/A20G/L76V triple variant (natural protein)”, in [8], the population of the dimer species was found to be 91.1% and the stoichiometry N was 2.

As to PHCP T18F variant (natural protein), in test [9], the stoichiometry N came to 2.

“recombinant PHCP wild-type (natural protein)”: in test [10], the population of the dimer species was found to be 99.9% and the stoichiometry N amounted to 2.

The values are drawn from paper PMC5368077, “Structural and functional insights into thermally stable cytochrome c′ from a thermophile” (Protein Science : A Publication of the Protein Society, 2017).
